Data reported in patent publication US5145783A, “Glyphosate-tolerant 5-endolpyruvyl-3-phosphoshikimate synthase” (Monsanto Company, priority 1990, dated 1992).

Molecular target: T1, wild-type EPSP synthase of tomato (Solanum lycopersicum, UniProt P10748)
T1 construct: ATG translational initiation codon at the site predicted to be the start of the mature enzyme for in vitro expression in E. Coli; initiator methionine (ATG in an engineered NcoI site) (N); made in house; host or cells: E. coli SR481 (aroA mutant) harboring pMON9719, desalted cell extract
Assay: EPSP synthase activity assay, extracts of E. coli SR481 harboring pMON9719
Assay type: biochemical
Conditions: cells containing pMON9719, no glyphosate
Protocol: E. coli SR481 cells harboring pMON9719 or pMON9729 were grown under conditions which induce the expression of the RecA promoter. The cells were lysed and the extracts were assayed for EPSP synthase activity.
Specifically, the bacterial cell paste was washed twice with 0.9% saline, suspended in buffer (100 mM Tris-HCl, 5 mM dithiothreitol, 1 mM EDTA, 10% glycerol and 1 mM benzamidine HCl) passed twice through the French Pressure Cell at 1000 psi. The cell abstract was separated from the cells by centrifuging at 15,000×gravity for 10 mins. at 5° C. It was desalted using Sephadex G-50 (Pharmacia, Piscataway, N.J.). The desalted extract was assayed for EPSP synthase activity as follows:
To an assay mix (40 μl) containing shikimate-3-phosphate (2 mM), ^14 C-phosphoenolpyruvate (1 mM, 1.2 mCi/mmol), ammonium molybdate (0.1 mM), potassium fluoride (5 mM), in 50 mM HEPES-KOH, pH 7, was added 10 μl of the extract and incubated at 25° C. for 2 mins. […] The radioactivity of the eluent was monitored using a Radiometric Flo-One Beta Instrument. […] The EPSP synthase activity was determined by measurement of the conversion of ^14 C-PEP to ^14 […], both of which are resolved under the above conditions of chromatography. The protein content of the extract was determined by the method of Bradford (Biorad Labs, Calif.). […]

B1: pMON9719: wild-type EPSP synthase of tomato expressed in E. coli SR481 under the recA promoter, cell extract (protein, UniProt P10748 77-520, looked up)
3-phosphoshikimate …: KPHEIVLXPIKDISGTVKLPGSKSLSNRILLLAALSEGRTVVDNLLSSDDIHYMLGALKTLGLHVEDDNENQRAIVEGCGGQFPVGKKSEEEIQLFLGNAGTAMRPLTAAVTVAGGHSRYVLDGVPRMRERPIGDLVDGLKQLGAEVDCSLGTNCPPVRIVSKGGLPGGKVKLSGSISSQYLTALLMAAPLALGDVEIEIIDKLISVPYVEMTLKLMERFGVFVEHSSGWDRFLVKGGQKYKSPGKAFVEGDASSASYFLAGAAVTGGTVTVEGCGTSSLQGDVKFAEVLEKMGAEVTWTENSVTVKGPPRNSSGMKHLRAIDVNMNKMPDVAMTLAVVALFADGPTTIRDVASWRVKETERMIAICTELRKLGATVVEGSDYCIITPPEKLNVTEIDTYDDHRMAMAFSLAACADVPVTIKNPGCTRKTFPDYFEVLQKYSKH
modifications: X: residue not identified in the source
notes: wild-type EPSP synthase of tomato expressed in E. coli SR481 under the recA promoter, cell extract
EPSP synthase activity (specific activity of the extract): about 1600 nanomoles of EPSP synthase formed/minute/mg protein
